Target: Sox9 (UniProt Q04887 1-507)
Assay: EMSA

Sox9, sequence (Q04887 whole entry): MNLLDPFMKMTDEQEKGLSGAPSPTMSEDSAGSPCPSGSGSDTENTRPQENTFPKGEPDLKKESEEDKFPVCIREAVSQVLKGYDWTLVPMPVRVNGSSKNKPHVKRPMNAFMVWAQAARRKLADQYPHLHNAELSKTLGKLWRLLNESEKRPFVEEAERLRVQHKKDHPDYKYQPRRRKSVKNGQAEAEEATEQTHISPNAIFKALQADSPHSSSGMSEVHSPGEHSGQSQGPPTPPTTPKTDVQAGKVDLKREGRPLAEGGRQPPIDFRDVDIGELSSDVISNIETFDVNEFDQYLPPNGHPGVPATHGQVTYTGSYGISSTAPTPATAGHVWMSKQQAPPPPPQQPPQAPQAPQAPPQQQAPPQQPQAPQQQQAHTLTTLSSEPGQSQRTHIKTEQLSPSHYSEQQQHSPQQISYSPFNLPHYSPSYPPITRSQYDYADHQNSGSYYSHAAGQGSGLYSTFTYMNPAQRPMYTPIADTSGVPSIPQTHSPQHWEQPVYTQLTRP

B1: Col2a1 enhancer probe (Sox9-binding site) (dsDNA)
DNA 1: GCGCTTGAGAAAAGCCCCATTCATGAGAGGC
DNA 2: GCCTCTCATGAATGGGGCTTTTCTCAAGCGC
- binding result: binds

— PMC2674534
